According to publication PMC3392929 (The Journal of Cell Biology, 2012):

Key:
[1] = biological target: Purified β-actin (Cytoskeleton) (UniProt P60709 1-375); assay: SPR
[2] = biological target: Purified β-actin (Cytoskeleton) (UniProt P60709 1-375); assay: SPR; remark: listed apart in the source

B1: GST-tagged full-length Myo1c (natural protein)
chain: MALQVELIPTGEIIRVVHPHRPCKLALGSDGVRVTMESALTARDRVGVQDFVLLENFTSEAAFIENLRRRFRENLIYTYIGPVLVSVNPYRDLQIYSRQHMERYRGVSFYEVPPHLFAVADTVYRALRTERRDQAVMISGESGAGKTEATKRLLQFYAETCPAPERGGAVRDRLLQSNPVLEAFGNAKTLRNDNSSRFGKYMDVQFDFKGAPVGGHILSYLLEKSRVVHQNHGERNFHIFYQLLEGGEEETLRRLGLERNPQSYLYLVKGQCAKVSSINDKSDWKVVRKALTVIDFTEDEVEDLLSIVASVLHLGNTHFAADEESNAQVTTENQLKYLTRLLGVEGSTLREALTHRKIIAKGEELLSPLNLEQAAYARDALAKAVYSRTFTWLVAKINRSLASKDAESPSWRSTTVLGLLDIYGFEVFQHNSFEQFCINYCNEKLQQLFIELTLKSEQEEYEAEGIAWEPVQYFNNKIICDLVEEKFKGIISILDEECLRPGEATDLTFLEKLEDTIKQHPHFLTHKLADQRTRKSLDRGEFRLLHYAGEVTYNVTGFLDKNNDLLFRNLKETMCSSENPILGQCFDRSELSDKKRPETVATQFKMSLLELVEILKSKEPAYVRCIKPNDSKQPGRFDEVLIRHQVKYLGLMENLRVRRAGFAYRRKYEAFLQRYKSLCPETWPTWTGRPQDGVTVLVRHLGYKPEEYKMGRTKIFIRFPKTLFATEDALEIRRQSLATKIQATWRGFHCRQKFLRVKRSAICIQSWWRGTLGRRKAAKRKWAAQTIRRLIQGFILRHAPRCPENAFFVDHVRTSFLLNLRRQLPRNILDTSWPTPPPALREASELLRELCRKNMVWKYCRSISPEWKQQLQQKAVASEIFKGKKDNYPQSVPRLFISTRLGADEINPRVLQALGSEPIQYAVPVVKYDRKGYKPRSRQLLLTPNAVVIVEDAKVKQRIEYTNLTGISVSSLSDSLFVLHVQREDNKQKGDVVLQSDHVIETLTKTALSADRVNNININQGSITFAGGPGRDGIIDFTPGSELLITKAKNGHLAVVAPRLNSR
- Kd [1]: ≤ 2 µM

B2: GST-tagged Myo1c tail domain (domain or fragment)
chain: KDNYPQSVPRLFISTRLGADEINPRVLQALGSEPIQYAVPVVKYDRKGYKPRSRQLLLTPNAVVIVEDAKVKQRIEYTNLTGISVSSLSDSLFVLHVQREDNKQKGDVVLQSDHVIETLTKTALSADRVNNININQGSITFAGGPGRDGIIDFTPGSELLITKAKNGHLAVVAPRLNSR
- Kd [2]: ≤ 2 µM
